Assay results: US20190153059A1 (ADEPTHERA, published 2019)
Square brackets hold non-standard residues; d marks the D form. Ends that are not written are not given here. * marks the point of attachment. Palmitoyl = CCCCCCCCCCCCCCCC(=O)*; AEEA = NCCOCCOCC(=O)O

B1: SEQ ID NO: 145 (peptide)
peptide: YAGFLKVQKLSAPVDPSSPHSY
modifications: Ace- at N-terminus; (D-Ala) and (D-Leu) in Y(D-Ala)GF(D-Leu); miniPEG before K(Pal); K(Pal); -NH2

Columns and labels:
Test in all cases: cell-based or functional assay
[1] = target: T1, CLR/RAMP2 receptor (UniProt Q16602 23-461; O60895 43-175, limits assumed)
[2] = target: T2, CLR/RAMP1 receptor (UniProt Q16602 23-461; O60894 27-148, limits assumed)
[3] = target: T1, CLR/RAMP2 receptor; remark: listed apart in the source
[4] = target: T2, CLR/RAMP1 receptor; remark: listed apart in the source

T1 sequence (Q16602 23-461 limits assumed, chain 1 of 2): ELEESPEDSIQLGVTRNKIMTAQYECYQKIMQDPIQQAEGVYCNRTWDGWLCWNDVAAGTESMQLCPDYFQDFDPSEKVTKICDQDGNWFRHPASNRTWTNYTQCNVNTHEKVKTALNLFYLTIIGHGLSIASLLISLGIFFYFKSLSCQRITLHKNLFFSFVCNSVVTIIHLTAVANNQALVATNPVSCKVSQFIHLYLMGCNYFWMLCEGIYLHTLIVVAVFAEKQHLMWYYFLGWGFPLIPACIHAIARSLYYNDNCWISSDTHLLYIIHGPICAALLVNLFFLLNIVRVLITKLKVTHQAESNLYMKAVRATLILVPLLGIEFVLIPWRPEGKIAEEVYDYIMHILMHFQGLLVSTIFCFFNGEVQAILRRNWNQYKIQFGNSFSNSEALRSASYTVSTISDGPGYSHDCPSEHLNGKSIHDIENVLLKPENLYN
T1 sequence (O60895 43-175 limits assumed, chain 2 of 2): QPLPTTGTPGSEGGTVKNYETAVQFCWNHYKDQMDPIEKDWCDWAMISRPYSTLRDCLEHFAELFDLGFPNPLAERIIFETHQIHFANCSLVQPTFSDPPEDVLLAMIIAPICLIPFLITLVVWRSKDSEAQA
T2 sequence (Q16602 23-461 limits assumed, chain 1 of 2): as the sequence (Q16602 23-461 limits assumed, chain 1 of 2) above
T2 sequence (O60894 27-148 limits assumed, chain 2 of 2): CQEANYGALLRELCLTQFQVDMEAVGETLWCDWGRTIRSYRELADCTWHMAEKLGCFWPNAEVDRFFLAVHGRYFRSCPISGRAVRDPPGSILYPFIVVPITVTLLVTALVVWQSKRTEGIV

| Binder | CLR/RAMP2 EC50 [1] [nM] | CLR/RAMP1 EC50 [2] [nM] | other results |
| --- | --- | --- | --- |
| Palmitoyl-KGCRFGTCTVQKLAHQIYQFTDKDKDNVAPVDPSSPHSY-NH2 (ends and bridges not checked) [SEQ ID NO: 34] | 0.7 | 0.2 | – |
| Ac-NFVPTNVGPFAF-NH2 [SEQ ID NO: 144] | – | – | CLR/RAMP2 IC50 [3]: > 10000 nM; CLR/RAMP2 Max Activity (antagonist) [3]: 0 % of positive control |
| [AEEA]K(Palmitoyl)CRFGTCTVQKLAHQIYQFTDKDKDNSAPVDPSSPHSY-NH2 (ends and bridges not checked) [SEQ ID NO: 43] | 0.2 | 0.5 | CLR/RAMP2 Max Activity [1]: 30 % of positive control; CLR/RAMP1 Max Activity [2]: 39 % of positive control |
| [AEEA]K(Palmitoyl)GCRFGTCTVQKLAHQIYQFTDKDKQDSAPVDPSSPHSY-NH2 (ends and bridges not checked) [SEQ ID NO: 51] | 0.3 | 0.2 | CLR/RAMP1 Max Activity [2]: 65 % of positive control |
| KGCRFGTCTVQKLAHQIYQFTDKDVAPRSKISPQGY (miniPEG- at N-terminus; K(PAL); (D-Ser) in ...VAPR(D-Ser)KISPQGY; -NH2) [SEQ ID NO: 213] | 0.7 | – | CLR/RAMP2 Max Activity [1]: 107 % of positive control |
| KGCRFGTCTVQKLAHQIYQFTDKDVAPRSKISPQGY (miniPEG- at N-terminus; K(PAL); (D-Val) in ...GTCT(D-Val)QKL...; -NH2) [SEQ ID NO: 211] | 0.9 | 8 | CLR/RAMP2 Max Activity [1]: 22 % of positive control |
| KGCRFGTCTVQKLAHQIYQFTDKDVAPRSKISPQGY (miniPEG- at N-terminus; K(PAL); (D-Gln) in ...KISP(D-Gln)GY; -NH2) [SEQ ID NO: 214] | 0.4 | – | CLR/RAMP2 Max Activity [1]: 99 % of positive control |
| Ac-KGCRFGTCTVQKLAHQIYQFTDKDKDNSAPVDPSSPHSY-NH2 (ends and bridges not checked) [SEQ ID NO: 59] | 18 | 31 | – |
| Palmitoyl-KGCRFGTCTVQKLAHQIYQFTDKDKQDSAPVDPSSPHSY-NH2 (ends and bridges not checked) [SEQ ID NO: 35] | 1 | 0.8 | – |
| Ac-KGCRFGTCTVQKLAHQIYQFTDKDKDNVAPVDPSSPHSY-NH2 (ends and bridges not checked) [SEQ ID NO: 60] | 3 | 16 | – |
| Palmitoyl-KTKKTLRTGCRFGTCTVQKLAHQIYQFTDKDKDNSAPVDPSSPHSY-NH2 (ends and bridges not checked) [SEQ ID NO: 38] | 0.7 | 0.5 | – |
| KGCRFGTCTVQKLAHQIYQFTDKDKSAPVDPSSPHSY (miniPEG- at N-terminus; K(PAL); -NH2) [SEQ ID NO: 47] | 0.4 | – | CLR/RAMP2 Max Activity [1]: 64 % of positive control |
| B1 | – | – | CLR/RAMP1 IC50 [4]: < 0.5 nM; CLR/RAMP1 Max Activity (antagonist) [4]: 99 % of positive control |
| Palmitoyl-GCRFGTCTVQKLAHQIYQFTDKDKDNSAPVDPSSPHSY-NH2 (ends and bridges not checked) [SEQ ID NO: 45] | 0.3 | 0.1 | – |
| Palmitoyl-KGCRFGTCTVQKLAHQIYQFTDKDKDNVAPRSKSSPHSY-NH2 (ends and bridges not checked) [SEQ ID NO: 63] | 7 | 180 | – |
| Ac-TK(Palmitoyl)KTLRTGCRFGTCTVQKLAHQIYQFTDKDKDNSAPVDPSSPHSY-NH2 (ends and bridges not checked) [SEQ ID NO: 39] | 0.5 | 0.2 | – |
| Palmitoyl-KTKKTLRTGCRFGTCTVQKLAHQIYQFTDKDKDNVAPVDPSSPHSY-NH2 (ends and bridges not checked) [SEQ ID NO: 40] | 1 | 2 | – |
| Ac-KGCRFGTCTVQKLAHQIYQFTDKDSAPVDPSSPHSY-NH2 (cysteine pairing not given here) [SEQ ID NO: 93] | 17 | 771 | – |
| Ac-VGCRFGTCTVQKLAHQIYQFTPAGRQDSAPVDPSSPHSY-NH2 (ends and bridges not checked) [SEQ ID NO: 57] | 149 | 909 | – |
| Palmitoyl-KCRFGTCTVQKLAHQIYQFTDKDKDNSAPVDPSSPHSY-NH2 (ends and bridges not checked) [SEQ ID NO: 44] | 0.2 | 0.1 | – |

| Binder | CLR/RAMP2 EC50 [1] [nM] | CLR/RAMP1 EC50 [2] [nM] | other results |
| --- | --- | --- | --- |
| Palmitoyl-KGCRFGTCTVQKLAHQIYQFTDKDKDNSAPVDPSSPHSY-NH2 (cysteine pairing not given here) [SEQ ID NO: 30] | 0.6 | 0.4 | – |
| TKKTLRTGCRFGTCTVQKLAHQIYQFTDKDKDNVAPVDPSSPHSY (miniPEG- at N-terminus; K(Pal) at position 2 (miniPEG-TK(Pal)K...); -NH2) [SEQ ID NO: 42] | 0.2 | – | – |
| Ac-K(Palmitoyl)GCRFGTCTVQKLAHQIYQFTDKDKDNVAPRSKSSPHSY-NH2 (ends and bridges not checked) [SEQ ID NO: 65] | 19 | 234 | – |
| YGGFLRRIRPKLKKVQKLSAPVDPSSPHSY (Ace- at N-terminus; miniPEG between YGGFLRRIRPKLK and K(Pal); K(Pal); -NH2) [SEQ ID NO: 146] | – | – | CLR/RAMP1 IC50 [4]: < 0.5 nM; CLR/RAMP1 Max Activity (antagonist) [4]: 102 % of positive control |
| KGCRFGTCTVQKLAHQIYQFTDKDKDNVAPRSKISPQGY (Ace-PEG3- at N-terminus; K(Hexadecanoyl-isoGlu); -NH2) [SEQ ID NO: 151] | – | 0.5 | – |
| KGCRFGTCTVQKLAHQIYQFTDKDKDNVAPRSKISPQGY (Pal- at N-terminus; K(Pal); -NH2) [SEQ ID NO: 73] | 49 | 34 | – |
| KGCRFGTCTVQKLAHQIYQFTDKDKDNVAPRSKISPQGY (Ace-PEG3- at N-terminus; K([19-carboxy-nonadecanoyl]-PEG3-isoGlu); -NH2) [SEQ ID NO: 156] | – | 0.8 | CLR/RAMP1 Max Activity [2]: 88 % of positive control |
| KGCRFGTCTVQKLAHQIYQFTDKDKDNVAPRSKISPQGY (Ace-PEG3- at N-terminus; K([19-carboxy-nonadecanoyl]-isoGlu); -NH2) [SEQ ID NO: 155] | – | 0.6 | – |
| Palmitoyl-TVQKLAHQIYQFTDKDKDNSAPVDPSSPHSY-NH2 [SEQ ID NO: 77] | – | – | CLR/RAMP2 IC50 [3]: 47 nM; CLR/RAMP1 IC50 [4]: 9.9 nM |
| Ac-TK(Palmitoyl)KTLRTGCRFGTCTVQKLAHQIYQFTDKDKDNVAPVDPSSPHSY-NH2 (ends and bridges not checked) [SEQ ID NO: 41] | 0.9 | 0.4 | – |
| [AEEA]K(Palmitoyl)GCRFGTCTVQKLAHQIYQFTDKDKDSAPVDPSSPHSY-NH2 (ends and bridges not checked) [SEQ ID NO: 46] | 0.5 | – | CLR/RAMP2 Max Activity [1]: 104 % of positive control |
| Palmitoyl-KGCRFGTCTVQKLAHQIYQFTPAGRQDSAPVDPSSPHSY-NH2 (cysteine pairing not given here) [SEQ ID NO: 31] | 0.9 | 0.8 | – |
| Palmitoyl-KGCRFGTCTVQKLAHQIYQFTDKDAPVDPSSPHSY-NH2 (ends and bridges not checked) [SEQ ID NO: 110] | 6.4 | 43 | – |
| [AEEA]K(Palmitoyl)GCRFGTCTVQKLAHLWQLMGPAGRQDSAPVDPSSPHSY-NH2 (not fully specified; ends and bridges not checked) [SEQ ID NO: 62] | – | – | CLR/RAMP1 Max Activity [2]: 2 % of positive control |
| Ac-K(Palmitoyl)GCRFGTCTVQKLAHQIYQFTPAGRQDSAPVDPSSPHSY-NH2 (cysteine pairing not given here) [SEQ ID NO: 33] | 0.4 | 0.3 | – |
| Palmitoyl-KGCRFGTCTVQKLAHQIYQFTDKGRQDSAPVDPSSPHSY-NH2 (ends and bridges not checked) [SEQ ID NO: 36] | 0.9 | 0.6 | – |
| Ac-TVQKLAHQIYQFTDKDKDNSAPVDPSSPHSY-NH2 [SEQ ID NO: 76] | – | – | CLR/RAMP2 IC50 [3]: 289 nM; CLR/RAMP1 IC50 [4]: 1120 nM |
| Ac-FGCRFGTCTVQKLAHQIYQFTDKDKDNVAPRSKISPQGY-NH2 (ends and bridges not checked) [SEQ ID NO: 53 (human ADM)] | – | – | CLR/RAMP2 Max Activity [1]: 102 % of positive control; CLR/RAMP1 Max Activity [2]: 69 % of positive control |
| Ac-VGCRFGTCTVQKLAHQIYQFTDKDKDNSAPVDPSSPHSY-NH2 (ends and bridges not checked) [SEQ ID NO: 56] | 17 | 224 | – |
| Palmitoyl-KVQKLAHQIYQFTDKSAPVDPSSPHSY-NH2 [SEQ ID NO: 125] | – | – | CLR/RAMP2 IC50 [3]: 7.1 nM; CLR/RAMP1 IC50 [4]: 7 nM |
